Results published in patent US20260201029A1 (Janssen / Centocor, published 2026).
Like-named read-outs stand apart in the source and are kept apart here.

What was measured:
cynomolgus FcγRIIb = target: T1, cynomolgus FcγRIIb (cynomolgus); assay: SPR, receptor captured by anti-his, antibody injected, steady-state fit
T1 construct: His-tagged (captured on anti-his surface); construct not described; also called cy-RIIb; FcgRIIb

human FcγRIIb/c = target: T2, human FcγRIIb/c (human, UniProt P31994 46-217, limits assumed); assay: as above
T2 construct: His-tagged (captured on anti-his surface); construct not described; also called hu-RIIb/c; FcgRIIb
T2 sequence (looked up): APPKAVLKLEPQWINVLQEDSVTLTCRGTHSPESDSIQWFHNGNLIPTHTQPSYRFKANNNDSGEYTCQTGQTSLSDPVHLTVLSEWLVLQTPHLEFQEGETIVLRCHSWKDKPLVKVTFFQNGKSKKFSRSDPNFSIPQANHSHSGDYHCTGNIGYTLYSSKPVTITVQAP

human FcγRIIa = target: T3, human FcγRIIa (human, UniProt P12318 36-218, limits assumed); assay: as above
T3 construct: His-tagged (captured on anti-his surface); construct and allele not described; also called hu-RIIa; FcgRIIa
T3 sequence (looked up): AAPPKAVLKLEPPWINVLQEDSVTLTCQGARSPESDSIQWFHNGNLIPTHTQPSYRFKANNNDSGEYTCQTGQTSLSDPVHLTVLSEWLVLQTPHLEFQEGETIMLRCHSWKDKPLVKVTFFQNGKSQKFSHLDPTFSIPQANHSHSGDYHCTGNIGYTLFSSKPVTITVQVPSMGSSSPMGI

cynomolgus FcγRIIa = target: T4, cynomolgus FcγRIIa (cynomolgus); assay: as above
T4 construct: His-tagged (captured on anti-his surface); construct not described; also called cy-RIIa; FcgRIIa

[1] = target: T5, human GPRC5D (G-protein coupled receptor family C group 5 member D) (human, UniProt Q9NZD1 1-345); assay: cell-based or functional assay
T5 sequence (Q9NZD1 whole entry): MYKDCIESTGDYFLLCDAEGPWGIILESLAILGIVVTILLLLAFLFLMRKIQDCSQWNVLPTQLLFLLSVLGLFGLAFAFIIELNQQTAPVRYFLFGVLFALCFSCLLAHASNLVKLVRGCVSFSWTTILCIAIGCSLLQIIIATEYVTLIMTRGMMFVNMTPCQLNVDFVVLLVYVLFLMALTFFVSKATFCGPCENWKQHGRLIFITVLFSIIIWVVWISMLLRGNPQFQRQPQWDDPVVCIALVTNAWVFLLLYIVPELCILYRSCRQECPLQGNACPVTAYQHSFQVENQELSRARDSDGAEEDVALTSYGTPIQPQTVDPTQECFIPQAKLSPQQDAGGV

human GPRC5D nanodisc [2] = target: T6, human GPRC5D nanodisc (human, UniProt Q9NZD1 1-345); assay: SPR, antibody captured by anti-human Fc, GPRC5D-nanodisc injected, 1:1 fit
T6 construct: Bought reagent; also called GPRC5D-nanodiscs (Acro, #GPD-H52D4)
T6 sequence (Q9NZD1 whole entry): as above

human GPRC5D nanodisc [3] = target: T6, human GPRC5D nanodisc; assay: as above; remark: listed apart in the source
cyno GPRC5D nanodisc = cyno GPRC5D nanodisc (cynomolgus monkey); assay: as above
human FcγRI = target: T7, human FcγRI (human, UniProt P12314 16-288, limits assumed); assay: SPR, receptor captured by anti-his, antibody injected, 1:1 fit
T7 construct: His-tagged (captured on anti-his surface); construct not described; also called hu-RI; FcgRI
T7 sequence (P12314 16-288 limits assumed): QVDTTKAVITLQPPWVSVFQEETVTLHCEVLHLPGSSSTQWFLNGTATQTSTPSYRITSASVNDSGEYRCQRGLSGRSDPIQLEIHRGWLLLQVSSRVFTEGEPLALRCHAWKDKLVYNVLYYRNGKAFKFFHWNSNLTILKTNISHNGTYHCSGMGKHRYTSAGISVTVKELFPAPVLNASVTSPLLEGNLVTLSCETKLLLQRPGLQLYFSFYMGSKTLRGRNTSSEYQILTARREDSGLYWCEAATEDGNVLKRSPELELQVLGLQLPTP

cynomolgus FcγRIII = target: T8, cynomolgus FcγRIII (cynomolgus, UniProt Q8SPW2 17-208, limits assumed); assay: as above
T8 construct: His-tagged (captured on anti-his surface); construct not described; also called cy-RIII; FcgRIII
T8 sequence (Q8SPW2 17-208 limits assumed): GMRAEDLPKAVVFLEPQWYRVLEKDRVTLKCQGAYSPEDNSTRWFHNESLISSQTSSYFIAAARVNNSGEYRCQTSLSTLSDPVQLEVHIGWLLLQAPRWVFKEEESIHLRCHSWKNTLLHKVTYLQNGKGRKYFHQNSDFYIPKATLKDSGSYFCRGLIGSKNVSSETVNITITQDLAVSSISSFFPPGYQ

cynomolgus FcγRI = target: T9, cynomolgus FcγRI (cynomolgus); assay: as above
T9 construct: His-tagged (captured on anti-his surface); construct not described; also called cy-RI; FcgRI

[4] = target: T10, human FcγRIIIa 158F allele (human, UniProt P08637 17-208); assay: as above
T10 construct: His-tagged (captured on anti-his surface); construct not described; also called Hu-RIIIaF; FcgRIIIa
T10 sequence (P08637 17-208 limits assumed): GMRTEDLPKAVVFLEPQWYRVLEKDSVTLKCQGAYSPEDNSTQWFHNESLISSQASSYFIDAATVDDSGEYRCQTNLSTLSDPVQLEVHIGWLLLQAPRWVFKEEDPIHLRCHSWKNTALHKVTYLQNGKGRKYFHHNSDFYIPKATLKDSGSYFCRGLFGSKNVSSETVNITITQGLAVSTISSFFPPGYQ

[5] = target: T11, human FcγRIIIa 158V allele (human, UniProt P08637 17-208); assay: as above
T11 construct: His-tagged (captured on anti-his surface); construct not described; The 158V allele differs from the 158F allele at that one position; also called Hu-RIIIa V; Hu-RIIIaV
T11 sequence (P08637 17-208 F176V limits assumed): as the sequence (P08637 17-208 limits assumed) above, with F160V counted along it

[6] = target: T5, human GPRC5D (G-protein coupled …); assay: cell-based or functional assay; remark: listed apart in the source
[7] = target: T5, human GPRC5D (G-protein coupled …); assay: flow cytometry on H929 cells
[8] = target: T5, human GPRC5D (G-protein coupled …); assay: flow cytometry on MM1.R cells

B1: GC5B1552.AFU (antibody, human IgG1, kappa)
chain: DKTHTCPPCPAPELLGGPSVFLFPPKPEDTLMISRTPEVTCVVVDVSHEDPEVKFNWYVDGVEVHNAKTKPREEQYNSTYRVVSVLTVLHQDWLNGKEYKCKVSNKALPAPIEKTISKAKGQPREPQVYTLPPSREEMTKNQVSLWCLVKGFYPSDIAVEWESNGQPENNYKTTPPVLDSDGSFFLYSKLTVDKSRWQQGNVFSCSVMHEALHNHYRQKSLSLSPGK
heavy: not shown
light: DIQMTQSPSSLSASVGDRVTITCRASQGIRNDLGWYQQKPGKAPKRLIYAASSLQSGVPSRFSGSGSGTEFTLTISSLQPEDFATYYCLQRNTYPLTFGGGTKVEIKRTVAAPSVFIFPPSDEQLKSGTASVVCLLNNFYPREAKVQWKVDNALQSGNSQESVTEQDSKDSTYSLSSTLTLSKADYEKHKVYACEVTHQGLSSPVTKSFNRGEC
notes: expressed in a FUT8 knockout CHO host, so the Fc glycan is afucosylated; also called GC5B1552.AFU.003; GC5B1552.AFU.001
For B1, which “Fold increase in binding (vs wt IgG1 control)” value (from here on “Fold increase in binding”) (cynomolgus FcγRIIb) is on record?
Its value is 0.8 fold.

What about the Kd (cynomolgus FcγRIIb) of the same binder?
Its Kd is 5400 nM.

And the “Fold increase in binding” value (human FcγRIIb/c)?
The value was 1 fold.

What about the Kd (human FcγRIIb/c) of the same binder?
Its Kd is 11600 nM.

What about the “Fold increase in binding” value (human FcγRIIa) of the same binder?
The value was 2.5 fold.

And the Kd (human FcγRIIa)?
The Kd was 3710 nM.

And the “Fold increase in binding” value (cynomolgus FcγRIIa)?
The value was 0.9 fold.

And the Kd (cynomolgus FcγRIIa)?
Its Kd is 8820 nM.

And the “ADCC EC50 (nM), CD138+ MM patient plasma cells, Sample 1” value [1]?
Its value is 0.007 nM.

What about the “ADCC EC50 (nM), CD138+ MM patient plasma cells, Sample 2” value [1] of the same binder?
Its value is 0.09 nM.

And the “ADCC EC50 (nM), CD138+ MM patient plasma cells, Sample 6” value [1]?
Its value is 0.04 nM.

What about the “ADCC EC50 (nM), CD138+ MM patient plasma cells, Sample 17” value [1] of the same binder?
Its value is 0.64 nM.

What about the “CDC EC50 (nM), CD138+ MM patient plasma cells, Sample 6” value [1] of the same binder?
The value was 40.5 nM.

And the “CDC EC50 (nM), CD138+ MM patient plasma cells, Sample 17” value [1]?
The value was 35.5 nM.

And the Kd (human GPRC5D nanodisc [2])?
Its Kd is 84 nM.

What about the koff (human GPRC5D nanodisc [2]) of the same binder?
The koff was 0.00148 s⁻¹.

And the kon (human GPRC5D nanodisc [2])?
Its kon is 18000 M⁻¹ s⁻¹.

And the Kd (human GPRC5D nanodisc [3])?
Its Kd is 77 nM.

What about the koff (human GPRC5D nanodisc [3]) of the same binder?
The koff was 0.00169 s⁻¹.

What about the kon (human GPRC5D nanodisc [3]) of the same binder?
The kon was 22000 M⁻¹ s⁻¹.

And the Kd (cyno GPRC5D nanodisc)?
The Kd was 1880 nM.

And the koff (cyno GPRC5D nanodisc)?
Its koff is 0.0179 s⁻¹.

What about the kon (cyno GPRC5D nanodisc) of the same binder?
Its kon is 9520 M⁻¹ s⁻¹.

And the “Fold increase in binding” value (human FcγRI)?
Its value is 2.2 fold.

What about the Kd (human FcγRI) of the same binder?
The Kd was 1.3 nM.

And the koff (human FcγRI)?
The koff was 0.000738 s⁻¹.

And the kon (human FcγRI)?
Its kon is 567000 M⁻¹ s⁻¹.

And the “Fold increase in binding” value (cynomolgus FcγRIII)?
Its value is 33.2 fold.

And the Kd (cynomolgus FcγRIII)?
The Kd was 11.9 nM.

And the koff (cynomolgus FcγRIII)?
The koff was 0.034 s⁻¹.

And the kon (cynomolgus FcγRIII)?
The kon was 2.86e+06 M⁻¹ s⁻¹.

And the “Fold increase in binding” value (cynomolgus FcγRI)?
The value was 1.5 fold.

And the Kd (cynomolgus FcγRI)?
The Kd was 1 nM.

What about the koff (cynomolgus FcγRI) of the same binder?
Its koff is 0.000659 s⁻¹.

And the kon (cynomolgus FcγRI)?
Its kon is 647000 M⁻¹ s⁻¹.

What about the “Fold increase in binding” value [4] of the same binder?
The value was 50.7 fold.

And the Kd [4]?
The Kd was 75 nM.

And the koff [4]?
Its koff is 0.167 s⁻¹.

And the kon [4]?
The kon was 2.24e+06 M⁻¹ s⁻¹.

What about the “Fold increase in binding” value [5] of the same binder?
The value was 111 fold.

And the Kd [5]?
Its Kd is 8.1 nM.

And the koff [5]?
The koff was 0.0232 s⁻¹.

What about the kon [5] of the same binder?
The kon was 2.85e+06 M⁻¹ s⁻¹.

What about the “ADCC EC50, AMO-1 cells, primary healthy donor human NK cells” value [6] of the same binder?
Its value is 1.2 nM.

And the “ADCC EC50, H929 cells, primary healthy donor human NK cells” value [6]?
The value was 0.04 nM.

And the “ADCC EC50, MM.1R cells, primary healthy donor human NK cells” value [6]?
The value was 0.005 nM.

What about the “ADCP EC50, H929 cells, M1-macrophages” value [6] of the same binder?
The value was 0.05 nM.

What about the “ADCP EC50, MM.1R cells, M1-macrophages” value [6] of the same binder?
Its value is 0.05 nM.

And the “CDC EC50, AMO-1 cells, CellTiter-Glo, 40% human serum” value [6]?
The value was 35.3 nM.

What about the “CDC EC50, JIM-3 cells, CellTiter-Glo, 40% human serum” value [6] of the same binder?
The value was 13.1 nM.

What about the “CDC EC50, MM.1R cells, CellTiter-Glo, 40% human serum” value [6] of the same binder?
The value was 8.77 nM.

B2: GC5B1552 (antibody)
chain: B1 chain
heavy: not shown
light: B1 light
notes: Monovalent JAWA (K248E/T437R) antibody as named without the .AFU suffix
Which results are given for B2?
EC50 [7]: 1.3 nM; EC50 [8]: 3.2 nM
